System: Escherichia coli TOP10
Assay: shrunken log2 fold change of peptide-encoding DNA abundance (4.5 h post-induction vs induction); higher = less antimicrobial activity (less host growth inhibition)
Details: time post-induction: 4.5 h; library: site-saturation at positions 5, 18, 19, 20
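Note: peptides expressed intracellularly from a pBAD plasmid library in pooled LB shake-flask culture, induced with 0.3% L-arabinose, DNA abundance read by NGS, three biological replicates, DESeq2 with apeglm shrinkage.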

Row | Sequence | shrunken log2 fold change
1 | RRIRPRPPRLPRPRPRPEDNPRP | -0.0402
2 | RRIRRRPPRLPRPRPRPEGTPRP | 0.28
3 | RRIRVRPPRLPRPRPRPWMSPRP | -0.076
4 | RRIRLRPPRLPRPRPRPPKRPRP | 0.492
5 | RRIRSRPPRLPRPRPRPSTPPRP | -0.0374
6 | RRIRWRPPRLPRPRPRPAWWPRP | 0.691
7 | RRIRARPPRLPRPRPRPRCLPRP | 0.157
8 | RRIRARPPRLPRPRPRPFWAPRP | 0.218
9 | RRIRWRPPRLPRPRPRPQDEPRP | -0.143
10 | RRIRSRPPRLPRPRPRPNSRPRP | -0.105
11 | RRIRERPPRLPRPRPRPSKMPRP | -0.141
12 | RRIRDRPPRLPRPRPRPSVHPRP | -0.258
13 | RRIRVRPPRLPRPRPRPHWCPRP | -0.144
14 | RRIRLRPPRLPRPRPRPIVLPRP | -0.345
15 | RRIRWRPPRLPRPRPRPLRTPRP | 1.39
16 | RRIRERPPRLPRPRPRPDNFPRP | 0.00707
17 | RRIRNRPPRLPRPRPRPSIRPRP | -0.0225
18 | RRIRARPPRLPRPRPRPLREPRP | 1.16
19 | RRIRWRPPRLPRPRPRPHCAPRP | -0.0143
20 | RRIRSRPPRLPRPRPRPKMKPRP | 0.912
21 | RRIRKRPPRLPRPRPRPRYDPRP | -0.0842
22 | RRIRPRPPRLPRPRPRPANYPRP | 0.0679
23 | RRIRMRPPRLPRPRPRPPNVPRP | 0.301
24 | RRIRTRPPRLPRPRPRPYGWPRP | -0.123
25 | RRIRARPPRLPRPRPRPLCKPRP | 0.326

Row | Sequence | shrunken log2 fold change
26 | RRIRDRPPRLPRPRPRPYLYPRP | -0.0408
27 | RRIRDRPPRLPRPRPRPNFIPRP | -0.0733
28 | RRIRHRPPRLPRPRPRPCSHPRP | -0.0787
29 | RRIRFRPPRLPRPRPRPQRWPRP | 0.427
30 | RRIRDRPPRLPRPRPRPKGQPRP | 0.116
31 | RRIRPRPPRLPRPRPRPWVFPRP | 0.0691
32 | RRIRWRPPRLPRPRPRPAHRPRP | 0.49
33 | RRIRGRPPRLPRPRPRPMAVPRP | 0.773
34 | RRIRQRPPRLPRPRPRPRCGPRP | 0.236
35 | RRIRRRPPRLPRPRPRPDAIPRP | -0.0233
36 | RRIRLRPPRLPRPRPRPLMKPRP | 0.0215
37 | RRIRWRPPRLPRPRPRPNAVPRP | 0.259
38 | RRIRPRPPRLPRPRPRPRNCPRP | 0.0981
39 | RRIRVRPPRLPRPRPRPKVFPRP | -0.0519
40 | RRIRGRPPRLPRPRPRPPHHPRP | 0.537
41 | RRIRWRPPRLPRPRPRPHFKPRP | -0.179
42 | RRIRHRPPRLPRPRPRPKWYPRP | -0.462
43 | RRIRTRPPRLPRPRPRPNCRPRP | -0.00739
44 | RRIRFRPPRLPRPRPRPKVDPRP | -0.0492
45 | RRIRYRPPRLPRPRPRPQSNPRP | -0.07
46 | RRIRSRPPRLPRPRPRPDVMPRP | -0.0117
47 | RRIRARPPRLPRPRPRPANGPRP | 0.109
48 | RRIRERPPRLPRPRPRPMMKPRP | -0.282
49 | RRIRARPPRLPRPRPRPDNWPRP | 0.283
50 | RRIRTRPPRLPRPRPRPNSVPRP | -0.0853

Row | Sequence | shrunken log2 fold change
51 | RRIRARPPRLPRPRPRPPQHPRP | 0.655
52 | RRIRIRPPRLPRPRPRPGYWPRP | -0.0497
53 | RRIRSRPPRLPRPRPRPVHGPRP | -0.215
54 | RRIRWRPPRLPRPRPRPNCAPRP | 0.255
55 | RRIRNRPPRLPRPRPRPNRWPRP | 0.105
56 | RRIRVRPPRLPRPRPRPIWQPRP | -0.114
57 | RRIRTRPPRLPRPRPRPNGTPRP | -0.402
58 | RRIRARPPRLPRPRPRPPGVPRP | 0.158
59 | RRIRWRPPRLPRPRPRPARVPRP | 0.413
60 | RRIRMRPPRLPRPRPRPAMIPRP | -0.0626
61 | RRIRDRPPRLPRPRPRPTFTPRP | 0.347
62 | RRIRCRPPRLPRPRPRPNKWPRP | -0.00442
63 | RRIRRRPPRLPRPRPRPSDWPRP | -0.302
64 | RRIRDRPPRLPRPRPRPDCYPRP | 0.269
65 | RRIRPRPPRLPRPRPRPCFAPRP | 0.0019
66 | RRIRTRPPRLPRPRPRPTKKPRP | 0.0786
67 | RRIRTRPPRLPRPRPRPVHRPRP | -0.0993
68 | RRIRMRPPRLPRPRPRPGFMPRP | 0.0795
69 | RRIRYRPPRLPRPRPRPLFNPRP | -1.24
70 | RRIRDRPPRLPRPRPRPPVGPRP | 0.348
71 | RRIRFRPPRLPRPRPRPSICPRP | -0.636
72 | RRIRSRPPRLPRPRPRPQAQPRP | -0.121
73 | RRIRNRPPRLPRPRPRPQSEPRP | -0.0564
74 | RRIRMRPPRLPRPRPRPIFYPRP | -0.106
75 | RRIRARPPRLPRPRPRPYTNPRP | -1.06

Reference: the supplement of paper PMC9112550, “Optimization of the antimicrobial peptide Bac7 by deep mutational scanning” (BMC Biology, 2022)
